How the values were obtained:
CCR10 [1] = target: T1, CCR10 (Homo sapiens, UniProt Q9NPB9); assay: Spectrum of ligands that bind to CCR10; type: binding
T1 construct: Full length CCR10 expression constructs were made in pIRESpuro expression vector; expressed in transfected cells; HEK293-CCR10)
T1 sequence (Q9NPB9 1-350): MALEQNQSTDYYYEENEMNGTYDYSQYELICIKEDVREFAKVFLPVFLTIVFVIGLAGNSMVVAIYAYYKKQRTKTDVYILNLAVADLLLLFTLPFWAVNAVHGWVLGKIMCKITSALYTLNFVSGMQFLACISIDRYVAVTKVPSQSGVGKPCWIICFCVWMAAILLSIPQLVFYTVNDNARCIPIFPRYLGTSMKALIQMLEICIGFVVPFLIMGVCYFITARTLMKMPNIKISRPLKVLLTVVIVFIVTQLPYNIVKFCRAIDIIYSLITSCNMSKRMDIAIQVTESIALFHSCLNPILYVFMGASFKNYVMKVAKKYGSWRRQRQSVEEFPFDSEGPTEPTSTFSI
Source text: (§1) Furthermore ELC-SK mediated adhesion was abolished in the presence of soluble native ELC as a competitor (FIG. 3A, top row). […] Moreover, radiolabeled ELC was used in a traditional homologous competition assay in the presence of increasing concentrations of unlabeled ELC. […] Taken together, the stalkokine-based adhesion and radiolabeled ligand binding/homologous competition assays indicate that CCR10 is a new chemokine receptor that bound a novel compliment of chemokines.

CCR7 = target: T2, CCR7 (Homo sapiens, UniProt P32248); assay: Binding of CCR7-NSO cells to immobilized stalkokines
T2 construct: host or cells: mouse myeloma NSO
T2 sequence (P32248 25-378): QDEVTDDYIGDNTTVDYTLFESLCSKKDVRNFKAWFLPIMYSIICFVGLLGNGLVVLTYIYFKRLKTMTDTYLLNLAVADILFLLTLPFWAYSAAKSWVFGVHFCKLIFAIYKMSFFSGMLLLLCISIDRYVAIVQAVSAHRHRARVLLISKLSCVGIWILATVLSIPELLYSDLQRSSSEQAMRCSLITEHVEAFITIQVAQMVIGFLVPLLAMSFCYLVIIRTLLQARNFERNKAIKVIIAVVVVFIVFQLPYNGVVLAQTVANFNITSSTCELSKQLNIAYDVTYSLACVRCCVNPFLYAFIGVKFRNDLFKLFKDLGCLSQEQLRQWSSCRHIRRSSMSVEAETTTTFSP
Description: (§2) In one set of experiments, five 8 well chamber slides (Lab-Tek II, Nalge Nunc International, Rochester, N.Y.), 250 ul of 10 ug/ml anti-his antibody (R&D Systems, Minneapolis, Minn.) in PBS was added to each well and incubated at room temperature overnight (typically 16 hours). Following, the liquid in each well was aspirated and washed once for approximately 5 minutes with 500 ul of PBS. The wells were then “blocked” (blocked for any additional protein binding sites) with the addition of 250 ul of blocking solution (2% fetal bovine serum, 0.5% BSA in PBS) and incubation for 1 hour at room temp (e.g., 20° C.). The liquid in each well was aspirated and 250 ul of supernatant containing the chemokine-stalk-immobilization domain fusion proteins (SDF1a-FRAC, finetaxin-FRAC, CCL27-FRAC, 1309-FRAC, MIP3a-FRAC, ELC-FRAC, SLC-FRAC, MDC-FRAC, TARC-FRAC, or BRAK-FRAC) or the control supernatant was added to two wells. Each slide contained two wells with control supernatant (from mock-transfected cells) and two wells with the positive control SDF1a (which binds the ubiquitous chemokine receptor CXCR4). The four other wells were for experimental samples. The supernatants were incubated for one hour at room temperature (typically 20° C.), then incubated for an additional hour at 37° C. […] The slide was then ready for addition of cells for assay. […]

CCR10 [2] = target: T1, CCR10; assay: Homologous competition binding of radiolabeled chemokine on HEK293-CCR10 cells
Source text: Human, viral and murine recombinant chemokines were obtained from R&D Systems (Minneapolis, Minn.; http://cytokine.rndsystems.com/cyt_cat/cyt_cat.html). ^125I-labeled ELC and TECK were obtained from Amersham. Full length CCR10 expression constructs were made in pIRESpuro expression vector (Clontech, Palo Alto, Calif.) with a FLAG epitope tag and prolactin signal sequence, and used to generated stable transfectants in HEK293 cells. Transient and stable transfections for CCR10 and stalkokines were done using Superfect reagent (Qiagen, Valencia, Calif.) following manufacturer's protocol. Stably-transfected cells were generated by selection in 2 ug/mL puromycin for 7 days, and expression was confirmed by FACS analysis of the FLAG epitope using anti-FLAG M1 (Sigma, St. Louis, Mo.) and 2′ anti-mouse PE conjugate (Coulter Immunotech, Miami, Fla.).
as §1

CCR8 = target: T3, CCR8 (Homo sapiens, UniProt P51685); assay: Binding of CCR8-NSO cells to immobilized stalkokines
T3 construct: host or cells: mouse myeloma NSO
T3 sequence (P51685 whole entry): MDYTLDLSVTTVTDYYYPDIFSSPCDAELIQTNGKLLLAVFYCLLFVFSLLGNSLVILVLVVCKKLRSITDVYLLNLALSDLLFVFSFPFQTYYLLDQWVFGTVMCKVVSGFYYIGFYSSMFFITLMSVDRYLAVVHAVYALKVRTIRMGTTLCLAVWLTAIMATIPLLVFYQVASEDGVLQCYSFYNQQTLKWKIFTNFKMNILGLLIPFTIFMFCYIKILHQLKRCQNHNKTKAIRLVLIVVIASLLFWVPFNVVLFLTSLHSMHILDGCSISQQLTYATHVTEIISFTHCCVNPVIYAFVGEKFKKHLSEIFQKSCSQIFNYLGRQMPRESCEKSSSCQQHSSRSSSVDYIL
Description: as §2

Molecule | Affinity of binding to CCR10 (CCR10 [1]) | Binding to Stalkokine form (CCR7) | Binding of radiolabeled chemokine in homologous competition with cold chemokine (CCR10 [2]) | Binding to Stalkokine form (CCR8)
SLC: secondary lymphoid-tissue chemokine, soluble recombinant (protein, UniProt O00585 24-134, looked up) C-C motif chemokine 21: SDGGAQDCCLKYSQRKIPAKVVRSYRKQEPSLGCSIPAILFLPRKRSQAELCADPKELWVQQLMQHLDKTPSPQKPAQGCRKDRGASKTGKKGKGSKGCKRTERSQTPKGP | high affinity | no |  | 
TECK: thymus expressed chemokine, soluble recombinant (protein) QGVFEDCCLAYHYPIGWAVLRRAWTYRIQEVSGSCNLPAAIFYLPKRHRKVCGNPKSREVQRAMKLLDARNKVFAKLHHNTQTFQAGPHAVKKLSSGNSKLSSSKFSNPISSSKRNVSLLISANSGL | high affinity |  | Nearly identical results | 
I309: stalkokine form of chemokine I309 (protein, left off: small tags and cut ends) KSMQVPFSRCCFSFAEQEIPLRAILCYRNTSSICSNEGLIFKLKRGKEACALDTVGWVQRHRKMLRHCPSKRKEFGGTFEKQIGEVKPRTTPAAGGMDESVVLEPEATGESSSLEPTPSSQEAQRALGTSPELPTGVTGSSGTRLPPTPKAQDGGPVGTELFRVPPVSTAATWQSSAPHQPGPSLWAEAKTSEAPSTQDPSTQASTASSPAPEENAPSEGQRVWGQGQSPRPENSLEREEMGPVPAHTDAFQDWGPGSMAHVSVVPVSSEGTPSREPVASGSWTPKAEEPIHATMDPQRLGVLITPVPDAQA |  |  |  | yes, yes
